Assay results: PMC7017353, “Delineating the Molecular Basis of the Calmodulin–bMunc13-2 Interaction by Cross-Linking/Mass Spectrometry—Evidence for a Novel CaM Binding Motif in bMunc13-2” (Cells, 2020)
pKd: −log10 of the molar value. One block for each substance: values may come before it.

What was measured:
[1] = target: CaM (bovine brain) (bovine) (UniProt P62157); experiment: cross-linking; chemical cross-linking (BS3, DSBU 1 mM; s-GMBS in two steps) of CaM (bovine brain, 10 µM) with 10 µM segment-A; 20 mM HEPES, 230 mM NaCl, 0.5 mM TCEP, 7.5% glycerol, pH 7.2, 25 °C; 750 nM and 1 mM Ca2+; SDS-PAGE and LC-MS/MS
[2] = target: CaM (source not told for this experiment) (UniProt P62157); experiment: native MS; 10 µM CaM and segment-A in 300 mM ammonium acetate pH 7.0; residual Ca2+ around 5 µM
Photo-Met labeled CaM [3] = target: Photo-Met labeled CaM (UniProt P0DP23); experiment: cross-linking; photo-cross-linking of photo-Met-labeled CaM (10 µM) with 10 µM segment-A, -B or -C; 20 mM HEPES, 250 mM NaCl, 0.5 mM TCEP, 7.5% glycerol, pH 7.2, 25 °C; free Ca2+ 75 nM to 1 mM (EGTA system); UV-A 360 nm; SDS-PAGE and LC-MS/MS
[4] = target: CaM (source not told for this experiment) (UniProt P62157); experiment: native gel or EMSA; native gel electrophoresis of the CaM/segment-A complex (Figure S5)
Photo-Met labeled CaM [5] = target: Photo-Met labeled CaM (UniProt P0DP23); experiment: cross-linking; photo-cross-linking of photo-Met-labeled CaM with segment-B, SDS-PAGE analysis (data not shown)
[6] = target: biotinylated photo-Met-labeled CaM (UniProt P0DP23); experiment: SPR; biotinylated photo-Met-CaM immobilised on streptavidin on a PEG-biotin chip; segment-C and variants injected at 0.1–1 µM in 20 mM HEPES, 230 mM NaCl, 0.5 mM TCEP, pH 7.2; 30 µL/min

stoichiometry N (segment-A per CaM) [1]: 1
stoichiometry N (segment-A per CaM) [2]: 1
stoichiometry N (segment-A per CaM) (Photo-Met labeled CaM [3]): 1
stoichiometry N (segment-A per CaM) [4]: 1
Substance: bMunc13-2 segment-A (aa 367–780) (from UniProt Q62769-2 367-780) (domain or fragment)

stoichiometry N (segment-B per CaM) (Photo-Met labeled CaM [5]): 1
Substance: bMunc13-2 segment-B (aa 367–903) (from UniProt Q62769-2 367-903) (domain or fragment)

pKd [6]: 6.80
stoichiometry N (segment-C per CaM) (Photo-Met labeled CaM [3]): 1
Substance: bMunc13-2 segment-C (aa 703–742) (peptide)
